We go through two molecules from publication PMC5928183, “A Role for the Non-Receptor Tyrosine Kinase Abl2/Arg in Experimental Neuroinflammation” (Journal of Neuroimmune Pharmacology, 2018).

The assay addresses actin filaments (F-actin) from chicken skeletal muscle (chicken, UniProt P68139 1-377). Nature of the assay: co-sedimentation; increasing amounts of Arg/Arg V1030M incubated with 1 μM actin filaments; 40 mM Hepes pH 7.25, 150 mM KCl, 2 mM MgCl2, 0.01% NP40, 4.5% glycerol; supernatant and pellet on SDS-PAGE, Coomassie R250 and densitometry; three trials. The settings on record: both partners purified.

Numbering of substitutions follows the chain as printed.

B1: Arg (Abl2/Arg non-receptor tyrosine kinase), valine at position 1030 (enzyme)
chain: MGQQVGRVGEAPGLQQPQPRGIRGSSAARPSGRRRDPAGRTADAGFNVFTQHDHFASCVEDGFEGDKTGGSSPEVLHRPFGCDAESQALNEAIRWSSKENLLGATESDPNLFVALYDFVASGDNTLSITKGEKLRVLGYNQNGEWSEVRSKNGQGWVPSNYITPVNSLEKHSWYHGPVSRSAAEYLLSSLINGSFLVRESESSPGQLSISLRYEGRVYHYRINTTTDSKVYVTAESRFSTLAELVHHHSTVADGLVTTLHYPAPKCNKPTVYGVSPIHDKWEMERTDITMKHKLGGGQYGEVYVGVWKKYSLTVAVKTFKEDTMEVEEFLKEAAVMKEIKHPNLVQLLGVCTLEPPFYIVTEYMPYGNLLDYLRECSREEVTAVVLLYMATQISSAMEYLEKKNFIHRDLAARNCLVGENHVVKVADFGLSRLMTGDTYTAHAGAKFPIKWTAPESLAYNTFSIKSDVWAFGVLLWEIATYGMSPYPGIDLSQVYDLLEKGYRMEQPEGCPPKVYELMRACWKWSPADRPSFAETHQAFETMFHDSSISEEVAEELGRTASSSSVVPYLPRLPLLPSKTRTLRKQGENKENLDGGLDAAESLASSSAPAGFIRSTQASSGSPALPRKQRDKSPSSLLEDAKETCFTRDRKGGFFSSFMKKRNAPTPPKRSSSFREMENQPHKKYELTGNFSPVASLQNADGFSVAPSQQEPNLVPAKCYGGSFAQRNLCADDDSGGGGGSGTAGGGWSGITGFFTPRLIKKTLGLRAGKPTASDDTSKPFPRSNSTSSMSSGLPEQDRMAMTLPRNCQRSKLQLERTVSTSSQPEENVDRANDMLPKKSEEGAAPARERPKAKLLPRGATALPLRAPDPAITESDSPGVGVAGVAAAPKGKERNGGTRLGVAGVPEDGEQLGWSSPAKAVAVLPTTHNHKVPVLISPTLKHTPADVQLIGTDSQGNKFKLLSEHQVTSSGDKDRPRRVKPKCAPPPPPVMRLLQHPSTCSDPEEEPTAPPAGQHTPETQEGGKKAAPGPVPSSGKPGRPVMPPPQVPLPTSSISPAKMANGTAGTKVALRKTKQAAEKISADKISKEALLECADLLSSAITEPVPNSQLVDTGHQLLDYCSGYVDSIPQTRNKFAFREAVSKLELSLQELQVSSTAAGVPGTNPVLNNLLSCVQEISDVVQR
notes: SNP rs30466582); neither tags nor construct limits are stated here; also called Arg_1030V; Abelson related gene; source: Hi5 cells via baculoviral vectors, purified as previously described (Wang et al., 2001)
B1: the dissociation constant (Kd) (as a rule, the constant that tells how readily two partners part at equilibrium) turned out to be 710 ± 500 nM.

B2: Arg V1030M (enzyme)
chain: B1 chain with V1030M
notes: SNP rs30466582); neither tags nor construct limits are stated here; also called Arg_1030M; source: Hi5 cells via baculoviral vectors, purified as previously described (Wang et al., 2001)
In turn, B2 displayed a Kd of 860 ± 640 nM.
